Patent US20260049138A1

These binders were tested against biotinylated CD3ε epitope peptide (assay: SPR, Biacore T100, biotinylated CD3ε epitope peptide on CM5 via streptavidin, antibody as analyte).

| Kd | Binder |
| --- | --- |
| 67 nM | CE115_M (antibody, V domains shown) VH: EVQLVETGGSLVQPGKSLKLTCATSGFTFSNAWMHWVRQSPEKQLEWVAQIKAKSNNYATYYAESVKGRFTISRDDSKSNIYLQMNSLKEEDTAVYYCRYVHYGAYYGVDAWGQGTSVTVSS VL: DVVMTQTPVSMSVSLGGQVSISCRSSQSLVHNNGNTYVSWYIQKPSQSPQLLIYKVSNRFSGISDRFSGSGSGTDFTLKISRVEPDDLGVYYCGQGTQDPYTFGAGTKLELK |

The binders below were run against CD3ε homodimer protein (human) (UniProt P07766) (assay: SPR).
CD3ε homodimer protein (human), sequence (P07766 23-126 limits assumed): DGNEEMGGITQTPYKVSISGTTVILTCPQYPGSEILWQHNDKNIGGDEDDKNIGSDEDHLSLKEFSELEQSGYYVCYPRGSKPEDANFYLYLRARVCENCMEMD

| KD ratio to GLS3000 | Binder |
| --- | --- |
| 13000 | GLS3000 H27dT (antibody, name in Kabat numbering, V domains shown) VH: QVQLVESGGGVVQPGRSLRLSCAASGFTFSNAWMHWVRQAPGKGLEWVAQIKAKSNNYATYYAESVKGRFTISRDDSKNSLYLQMNSLKTEDTAVYYCRYVHYGAYYGVDAWGQGTTVTVSS VL: DIVMTQSPLSLPVTPGEPASISCRSSQSLVTSNRNTYLHWYQQKPGQAPRLLIYKVSNRFSGVPDRFSGSGSGTDFTLKISRVEAEDVGVYYCGQGTQVPYTFGQGTKLEIK |
| 354 | GLS3000 H27dV (antibody, name in Kabat numbering, V domains shown) VH: QVQLVESGGGVVQPGRSLRLSCAASGFTFSNAWMHWVRQAPGKGLEWVAQIKAKSNNYATYYAESVKGRFTISRDDSKNSLYLQMNSLKTEDTAVYYCRYVHYGAYYGVDAWGQGTTVTVSS VL: DIVMTQSPLSLPVTPGEPASISCRSSQSLVVSNRNTYLHWYQQKPGQAPRLLIYKVSNRFSGVPDRFSGSGSGTDFTLKISRVEAEDVGVYYCGQGTQVPYTFGQGTKLEIK |
| 4460 | GLS3000 N28D (antibody, name in Kabat numbering, V domains shown) VH: QVQLVESGGGVVQPGRSLRLSCAASGFTFSNAWMHWVRQAPGKGLEWVAQIKAKSNNYATYYAESVKGRFTISRDDSKNSLYLQMNSLKTEDTAVYYCRYVHYGAYYGVDAWGQGTTVTVSS VL: DIVMTQSPLSLPVTPGEPASISCRSSQSLVHSDRNTYLHWYQQKPGQAPRLLIYKVSNRFSGVPDRFSGSGSGTDFTLKISRVEAEDVGVYYCGQGTQVPYTFGQGTKLEIK |
| 85800 | GLS3000 H34R (antibody, name in Kabat numbering, V domains shown) VH: QVQLVESGGGVVQPGRSLRLSCAASGFTFSNAWMHWVRQAPGKGLEWVAQIKAKSNNYATYYAESVKGRFTISRDDSKNSLYLQMNSLKTEDTAVYYCRYVHYGAYYGVDAWGQGTTVTVSS VL: DIVMTQSPLSLPVTPGEPASISCRSSQSLVHSNRNTYLRWYQQKPGQAPRLLIYKVSNRFSGVPDRFSGSGSGTDFTLKISRVEAEDVGVYYCGQGTQVPYTFGQGTKLEIK |
| 4130 | GLS3000 G89R (antibody, name in Kabat numbering, V domains shown) VH: QVQLVESGGGVVQPGRSLRLSCAASGFTFSNAWMHWVRQAPGKGLEWVAQIKAKSNNYATYYAESVKGRFTISRDDSKNSLYLQMNSLKTEDTAVYYCRYVHYGAYYGVDAWGQGTTVTVSS VL: DIVMTQSPLSLPVTPGEPASISCRSSQSLVHSNRNTYLHWYQQKPGQAPRLLIYKVSNRFSGVPDRFSGSGSGTDFTLKISRVEAEDVGVYYCRQGTQVPYTFGQGTKLEIK |
| 72100 | GLS3000 G91S (antibody, name in Kabat numbering, V domains shown) VH: QVQLVESGGGVVQPGRSLRLSCAASGFTFSNAWMHWVRQAPGKGLEWVAQIKAKSNNYATYYAESVKGRFTISRDDSKNSLYLQMNSLKTEDTAVYYCRYVHYGAYYGVDAWGQGTTVTVSS VL: DIVMTQSPLSLPVTPGEPASISCRSSQSLVHSNRNTYLHWYQQKPGQAPRLLIYKVSNRFSGVPDRFSGSGSGTDFTLKISRVEAEDVGVYYCGQSTQVPYTFGQGTKLEIK |
